Experimental data from patent US20160310575A1 (INDIANA UNIVERSITY RESEARCH AND TECHNOLOGY, published 2016).
Non-standard residues stand in square brackets, D forms with d. No end group written: not given here. Aib = CC(C)(N)C(=O)O

Tests used:
human GLP-R = human GLP-R (human, UniProt P43220 24-463); assay: cell-based or functional assay
human GIP-R = molecular target: T1, human GIP-R (human, UniProt P48546 22-466); assay: cell-based or functional assay
T1 sequence (looked up): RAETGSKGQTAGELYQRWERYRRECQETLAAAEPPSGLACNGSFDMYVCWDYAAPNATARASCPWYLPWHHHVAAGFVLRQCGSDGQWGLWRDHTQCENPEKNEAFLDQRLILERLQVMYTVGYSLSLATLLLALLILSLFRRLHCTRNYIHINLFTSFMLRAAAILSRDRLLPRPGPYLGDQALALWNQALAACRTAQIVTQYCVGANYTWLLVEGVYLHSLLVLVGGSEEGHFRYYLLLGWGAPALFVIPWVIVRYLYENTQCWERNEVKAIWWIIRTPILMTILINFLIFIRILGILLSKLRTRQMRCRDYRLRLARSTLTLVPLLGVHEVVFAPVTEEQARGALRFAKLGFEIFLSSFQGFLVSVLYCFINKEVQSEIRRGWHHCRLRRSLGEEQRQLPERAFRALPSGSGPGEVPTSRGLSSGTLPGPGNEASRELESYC

Binder: Y[Aib]EGTFTSDYSIYLDKQAA[Aib]EFVAWLLAGGPSSGAPPPSKLPETGGSGS-NH2 (also: PEG (site and size not given here)) [PEG-peptide-long24A]
- EC50 [nM], GLP1-R (cAMP assay) (human GLP-R): 3.89 nM
- EC50 [nM], GIP-R (cAMP assay) (human GIP-R): 7.51 nM
